Measured values published in patent US20240343803A1 (SHANDONG SIMCERE BIOPHARMACEUTICAL, published 2024).
Numbering of substitutions follows the chain as printed. Where two headings read alike, the source gives them in different places.

How the values were obtained:
[1] = molecular target: T1, human PVRIG-mFc protein (Acro, PVG-H5253) (human, UniProt Q6DKI7 41-171, limits assumed); test: competition FACS; blocked: human PVRIG-mFc binding to CHO-K1-CD112 cells
T1 construct: bought reagent; also called PVRIG-ECD-mFc
T1 sequence (looked up): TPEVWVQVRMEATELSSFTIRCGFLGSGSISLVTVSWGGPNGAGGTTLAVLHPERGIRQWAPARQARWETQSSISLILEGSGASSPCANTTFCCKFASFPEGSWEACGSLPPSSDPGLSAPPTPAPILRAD
In short: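 Antibody dilutions premixed with human PVRIG-mFc (working solution 1 μg/mL, four-fold concentration) for 30 min at 4° C, then incubated with CHO-K1-CD112 cells 30 min at 4° C. Bound PVRIG-mFc detected by PE anti-mouse IgG Fc flow cytometry; IC50 and AUC from four-parameter fit of MFI versus antibody concentration.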

[2] = molecular target: T2, human PVRIG-his (AcroBiosystems, Cat NO. PVG-H52H4) (human, UniProt Q6DKI7 41-171, limits assumed); test: competition ELISA on coated human PVRIG-his; blocked ligand human PVRL2-mFc
T2 construct: treated as the same protein; also called human PVRIG-His protein; Human PVRIG-His, Acro C227P1-9ARF1-T4
T2 sequence (looked up): T1 sequence (looked up)
In short: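 Wells were coated with 0.5 μg/mL human PVRIG-his. Bound ligand was read by HRP/TMB absorbance, and IC50 came from a four-parameter logistic fit of OD against antibody concentration.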

[3] = molecular target: T1, human PVRIG-mFc protein (Acro, …); test: competition FACS; blocked: human PVRIG-mFc binding to CHO-K1-CD112 cells; remark: listed apart in the source
In short: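 In this competition flow cytometry assay, the IC50 was taken from the curve of mean fluorescence intensity against antibody dilution. Antibodies and human PVRIG-mFc were premixed at 4° C for 30 min, then incubated with Zombie violet-stained CHO-K1-CD112 cells for 30 min at 4° C. PE goat anti-mouse IgG Fc (1:250) detected bound PVRIG-mFc on a BD Canto II.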

[4] = molecular target: T3, full-length cynomolgus monkey TIGIT on CHO-K1 cells (CHO-K1 cynomolgus monkey TIGIT) (cynomolgus monkey); test: FACS
T3 construct: NCBI XP_015300911.1; also called cynomolgus monkey TIGIT cells
T3 sequence (chain, as listed by the source limits assumed): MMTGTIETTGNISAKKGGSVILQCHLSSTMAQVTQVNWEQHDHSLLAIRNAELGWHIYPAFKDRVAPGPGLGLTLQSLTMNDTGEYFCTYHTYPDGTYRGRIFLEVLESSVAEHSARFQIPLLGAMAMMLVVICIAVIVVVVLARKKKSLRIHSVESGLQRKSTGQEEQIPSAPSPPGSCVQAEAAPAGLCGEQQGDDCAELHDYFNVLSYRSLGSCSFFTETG
Method: (§1) The collected cells were washed once with PBS (Hyclone, CAT #SH30256), resuspended to 2×10⁵/50 μL with 1% BSA-PBS. The antibodies were diluted to 80 nM with 1% BSA-PBS (diluted by 3-fold serial dilution for 12 concentration points). The 50 μL cells were then mixed with 50 μL diluted antibodies, and then incubated at 4° C. for 60 minutes. […] After washing twice with PBS, the cell samples were resuspended with 1% BSA-PBS, 100 μL/well and then analyzed by flow cytometry (BD, Canto II). […] [0298] (c) The effect of anti-TIGIT chimeric antibodies blocking the interaction between Bio-CD155-His and CHO-K1 human TIGIT high expression cell strains detected by FACS

[5] = molecular target: T4, full-length human TIGIT on CHO-K1 cells (CHO-K1 human TIGIT) (human, UniProt Q495A1 22-244); test: FACS, low expression strain
T4 construct: NCBI XP_024309156.1; entry includes the signal peptide; also called high expression strain 1D2; medium expression strain 2D10
T4 sequence: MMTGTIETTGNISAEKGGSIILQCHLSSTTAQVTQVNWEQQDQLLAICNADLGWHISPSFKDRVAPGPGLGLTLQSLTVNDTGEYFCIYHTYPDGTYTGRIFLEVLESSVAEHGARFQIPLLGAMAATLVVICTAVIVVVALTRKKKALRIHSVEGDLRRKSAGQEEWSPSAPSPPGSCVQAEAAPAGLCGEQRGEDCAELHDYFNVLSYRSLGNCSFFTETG
Method: as §1

[6] = molecular target: T5, Fusion protein of extracellular domain of human TIGIT and His-tag (human TIGIT ECD-his) (human); test: BIAcore; KD ratio to TIGIT-CHI-002
T5 chain: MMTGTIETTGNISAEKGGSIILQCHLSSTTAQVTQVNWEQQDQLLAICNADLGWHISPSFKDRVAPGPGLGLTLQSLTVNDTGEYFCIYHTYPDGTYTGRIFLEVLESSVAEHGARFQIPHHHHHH

[7] = molecular target: T5, Fusion protein of extracellular domain …; test: BIAcore; KD ratio to TIGIT-CHI-006

B1: PVRIG-A105 (VHH)
VHH: EVQLVESGGGLVQAGGSLRLSCAASGRTFDRHTMTWFRQAPGKEREFVATASRIPGDTYYSHSVKGRFTISRDNAKNTVYLQLNNLKPEDTAVYYCAATSAYCSEVDCYEKGSWYDNWGQGIQVTVSS
notes: tested as VHH-hinge-CH2-CH3 (human IgG1-Fc); not shown: human IgG1 hinge-CH2-CH3
[1]
  IC50 (read off the curve): ~1 nM
[2]
  IC50 (read off the curve): ~0.9 nM

B2: SRF813-hIgG1 (antibody, V domains shown)
VH: QVQLVQSGAEVKKPGSSVKVSCKASGGTFSSAAISWVRQAPGQGLEWMGNIIPIVGIANYAQKFQGRVTITADESTSTAYMELSSLRSEDTAVYYCARDTGRGYTRHFWFDPWGQGTLVTVSS
VL: DIQMTQSPSSLSASVGDRVTITCRASQSISSYLNWYQQKPGKAPKLLIYAASSLQSGVPSRFSGSGSGTDFTLTISSLQPEDFATYYCQQSDILYTFGGGTKVEIK
notes: human IgG1 format by its name
[1]
  IC50 (read off the curve): ~1 nM
[3]
  IC50 (read off the curve): ~1 nM
[2]
  IC50 (read off the curve): ~0.8 nM

B3: RG6058-hIgG1 (antibody, V domains shown)
VH: EVQLQQSGPGLVKPSQTLSLTCAISGDSVSSNSAAWNWIRQSPSRGLEWLGKTYYRFKWYSDYAVSVKGRITINPDTSKNQFSLQLNSVTPEDTAVFYCTRESTTYDLLAGPFDYWGQGTLVTVSS
VL: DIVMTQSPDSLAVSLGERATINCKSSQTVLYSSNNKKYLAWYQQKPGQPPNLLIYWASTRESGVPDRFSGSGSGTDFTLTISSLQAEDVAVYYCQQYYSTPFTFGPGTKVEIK
notes: human IgG1 format by its name; also called Roche RG6058; control antibody RG6058
[4]
  EC50: 0.0509 nM
[5]
  EC50: 0.495 nM

B4: TIGIT-002-H4L3 (antibody, V domains shown)
VH: EVQLQESGPGLVKPSETLSLTCAVSGYSITSDSWNWIRQPPGKKLEYIGYISYSGNTYYNPSLKSRVTISRDTSKNQFSLKLSSVTAADTAVYYCARLDFSNYGGAVDYWGQGTTVTVSS
VL: DIVMTQSPDSLAVSLGERATINCKASQNVRTAVAWYQQKPGQSPKLMIYSASYRYTGVPDRFSGSGSGTDFTLTISSLQAEDVAVYYCQQYYTTPWTFGGGTKVEIK
notes: Humanized anti-TIGIT antibody
[6]
  Fold change vs chimeric antibodies (KD): 1.26 fold

B5: TIGIT-006-H5L3 (antibody, V domains shown)
VH: B4 VH with I29M, S33Y, N56R, L98G, F100Y, V107M, D108Y, Y109D
VL: DIVMTQSPDSLAVSLGERATINCRASQGVSTTIAWYQQKPGQSPKLLIYSASYRYTGVPRFSGSGSGTDFTLTISSLQAEDVAVYYCQQYYSSPFTFGGGTKVEIK
notes: Humanized anti-TIGIT antibody
[7]
  Fold change vs chimeric antibodies (KD): 0.83 fold
